# Results from US20250034222.
# Test: SEC after Ni-NTA purification, area under monomer and dimer peaks
protein,measurement,value
"WT IL-38 (residues 3-152, initiator methionine, C-terminal His6 tag) (protein) MSLPMARYYIIKYADQKALYTRDGQLLVGDPVADNCCAEKICILPNRGLARTKVPIFLGIQGGSRCLACVETEEGPSLQLEDVNIEELYKGGEEATRFTFFQSSSGSAFRLEAAAWPGWFLCGPAEPQQPVQLTKESEPSARTKFYFEQSW",% monomer upon purification,"WT IL-38 forms ˜20% dimer upon purification, ˜80% monomer"
